Measured values: PMC9502857, “Heterologous Expression and Catalytic Properties of Codon-Optimized Small-Sized Bromelain from MD2 Pineapple” (Molecules, 2022)

Tested on: O=C(CNC(=O)OCc1ccccc1)Oc1ccc([N+](=O)[O-])cc1
Experiment: purified protein
Settings: 20 mM Tris-HCl pH 8.0, 37 °C (methods; results pH 5.0), GST fusion

MD2-SBro (small-sized bromelain from MD2 pineapple) (Ananas comosus)
Km: 42.1 ± 3.81 µM | Vmax: 0.432 µM/min | kcat: 0.2 ± 0.008 s⁻¹ | kcat/Km: 4750 ± 230 M⁻¹ s⁻¹
